Experimental findings from PMC3124598 are described below.

In this assay the target is TcpP-HSV (wild type, HSV epitope-tagged TcpP) (V. cholerae) (UniProt P29485). Nature of the assay: […], in 20 mM HEPES pH 7.0, 150 mM NaCl) […].
UniProt P29485, sequence (P29485 whole entry): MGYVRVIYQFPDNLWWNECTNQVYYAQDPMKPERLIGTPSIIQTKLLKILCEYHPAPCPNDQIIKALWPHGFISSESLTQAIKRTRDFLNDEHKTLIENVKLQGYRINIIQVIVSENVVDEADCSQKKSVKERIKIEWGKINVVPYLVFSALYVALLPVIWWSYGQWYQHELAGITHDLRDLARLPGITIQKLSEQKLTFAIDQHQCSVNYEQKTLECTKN

The substance “ToxR-P101L (chromosomal toxR locus) (natural protein)” came in with a percent of wild-type levels of interaction (% of wild-type) of 15.
